Laboratory results taken from patent US20240200046.

System: T1, MIT 11-12x.40 meganuclease (MIT 11-12) (artificial (I-CreI derived, Chlamydomonas reinhardtii))
T1 sequence: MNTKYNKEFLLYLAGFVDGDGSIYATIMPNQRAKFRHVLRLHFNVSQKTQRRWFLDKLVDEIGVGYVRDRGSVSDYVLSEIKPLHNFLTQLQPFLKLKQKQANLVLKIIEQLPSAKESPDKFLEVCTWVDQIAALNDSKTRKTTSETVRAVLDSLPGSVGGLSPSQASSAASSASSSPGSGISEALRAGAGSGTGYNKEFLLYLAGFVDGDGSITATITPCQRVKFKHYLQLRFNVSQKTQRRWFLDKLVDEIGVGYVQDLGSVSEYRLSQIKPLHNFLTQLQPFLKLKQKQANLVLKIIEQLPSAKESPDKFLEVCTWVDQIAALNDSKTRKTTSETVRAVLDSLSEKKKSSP
Test: cell_activity
Conditions: CHO split-GFP recombination assay, 48 h

In the case of wild-type mtDNA tRNA-Ala target site, the activity is reported as < 5 % GFP+ cells.
